Results on 4 variants are retold here after PMC4474532.

To fix the notation:
B1: human PERK luminal domain (residues 105–403) [human] / itself (parent)
chain: LVIISTLDGRIAALDPENHGKKQWDLDVGSGSLVSSSLSKPEVFGNKMIIPSLDGALFQWDQDRESMETVPFTVESLLESSYKFGDDVVLVGGKSLTTYGLSAYSGKVRYICSALGCRQWDSDEMEQEEDILLLQRTQKTVRAVGPRSGNEKWNFSVGHFELRYIPDMETRAGFIESTFKPNENTEESKIISDVEEQEAAIMDIVIKVSVADWKVMAFSKKGGHLEWEYQFCTPIASAWLLKDGKVIPISLFDDTSYTSNDDVLEDEEDIVEAARGATENSVYLGMYRGQLYLQSSVRI

In the experiment the parent is B1. Put plainly: sedimentation velocity AUC. The settings on record: with itself.

As for LVIISTLDGRIAALDPENHGKKQWDLDVGSGSLVSSSLSKPEVFGNKMIIPSLDGALFQWDQDRESMETVPFTVESLLESSYKFGDDVVLVGGKSLTTYGLSAYSGKVRYICSALGCRQWDSDEMEQEEDILLLQRTQKTVRAVGPRSGNEKWNFSVGHFELRYIPDMETRAGFIESTFKPNENTEESKIISDVEEQEAAIMDIVIKVSVADWKVMAFSKKGGHLEWEYQFCTPIASAWLLKDGKVIPISLFDDTSYTSNDDVLEDEEDIVEANRGATENSVYLGMYRGQLYLQSSVRI [chain 1 A274N], the screen value is, setting by setting: (parent: 0) -52%; (parent: 0.73) 0.35.
In the same order, the values of LVIISTLDGRIAALDPENHGKKQWDLDVGSGSLVSSSLSKPEVFGNKMIIPSLDGALFQWDQDRESMETVPFTVESLLESSYKFGDDVVLVGGKSLTTYGLSAYSGKVRYICSALGCRQWDSDEMEQEEDILLLQRTQKTVRAVGPRSGNEKWNFSVGHFELRYIPDMETRAGFIESTFKPNENTEESKIISDVEEQEAAIMDIVIKVSVADWKVMAFSKKGGHLEWEYQFCTPIASAWLLKDGKVIPISLFDDTSYTSNDDVLEDEEDIVEAARGATENSVYLGMYRGQNYLQSSVRI [chain 1 L291N] are -57% and 0.32.
The corresponding values for LVIISTLDGRIAALDPENHGKKQWDLDVGSGSLVSSSLSKPEVFGNKMIIPSLDGALFQWDQDRESMETVPFTVESLLESSYKFGDDVVLVGGKSLTTYGLSAYSGKVRYICSALGCRQWDSDEMEQEEDILLLQRTQKTVRAVGPRSGNEKWNFSVGHFELRYIPDMETRAGFIESTFKPNENTEESKIISDVEEQEAAIMDIVIKVSVADWKVMAFSKKGGHLEWEYQFCTPIASAWLLKDGKVIPISLFDDTSYTSNDDVLEDEEDIVEAARGATENSVYLGMYRGQLYNQSSVRI [chain 1 L293N] are -61% and 0.28.
In the same order, the values of LVIISTLDGRIAALDPENHGKKQWDLDVGSGSLVSSSLSKPEVFGNKMIIPSLDGALFQWDQDRESMETVPFTVESLLESSYKFGDDVVLVGGKSLTTYGLSAYSGKVRYICSALGCRQWDSDEMEQEEDILLLQRTQKTVRAVGPRSGNEKWNFSVGHFELRYIPDMETRAGFIESTFKPNENTEESKIISDVEEQEAAIMDIVIKVSVADWKVMAFSKKGGHLEWEYQFCTPIASAWLLKDGKVIPISLFDDTSYTSNDDVLEDEEDIVEAARGATENSVYNGMYRGQLYLQSSVRI [chain 1 L284N] are -58% and 0.31.
